T1: pig (Sus scrofa) B7H4, full length, on HEK-293F cells (pig, UniProt Q7Z7D3 26-282 (human entry))
T1 construct: Uniprot F1SAY4; also called pig B7H4
T1 chain: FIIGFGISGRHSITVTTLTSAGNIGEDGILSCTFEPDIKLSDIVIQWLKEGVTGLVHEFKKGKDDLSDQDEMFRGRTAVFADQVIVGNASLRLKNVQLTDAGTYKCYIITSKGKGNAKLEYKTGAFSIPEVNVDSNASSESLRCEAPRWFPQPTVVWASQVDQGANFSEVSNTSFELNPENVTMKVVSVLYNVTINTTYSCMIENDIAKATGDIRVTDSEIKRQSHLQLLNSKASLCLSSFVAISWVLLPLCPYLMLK

T2: human B7H4, full length, on cells (human, UniProt Q7Z7D3 25-282)
T2 construct: Uniprot Q7Z7D3; Used for transfected HEK cells and for the B7H4-expressing human tumor cell lines (endogenous B7H4); also called VTCN1
T2 sequence: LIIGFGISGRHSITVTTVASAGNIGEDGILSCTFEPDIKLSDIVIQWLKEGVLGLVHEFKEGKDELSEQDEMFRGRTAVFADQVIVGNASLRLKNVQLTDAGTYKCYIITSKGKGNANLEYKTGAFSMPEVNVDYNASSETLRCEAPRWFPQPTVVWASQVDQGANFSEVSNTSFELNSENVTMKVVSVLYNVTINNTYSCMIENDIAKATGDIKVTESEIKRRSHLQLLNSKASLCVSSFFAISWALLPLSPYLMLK


What was measured:
[1] = biological target: T1, pig (Sus scrofa) B7H4, full length, on …; experiment: flow cytometry, HEK-293F cells transfected with pig B7H4 [panel Pig B7H4]
Procedure: (§1) Cells (3×10⁴ cells/well) were incubated in polystyrene 96-well round-bottom plates (Greiner bio-one, cat. no. 650180) with serial dilutions of antibodies (ranging from 0.000458 to 30 μg/mL in 4-fold dilution steps) in 100 μL PBS/0.1% BSA/0.02% azide (staining buffer) at 4° C. for 30 min. Experiments were performed in technical duplicate. After washing twice in staining buffer, cells were incubated in 50 μL secondary antibody at 4° C. for 30 min. As a secondary antibody, R-Phycoerythrin (PE)-conjugated goat-anti-human IgG F(ab′)₂ (1:500 in FACS buffer; Jackson ImmunoResearch Laboratories, Inc., West Grove, PA, cat. no. 109-116-098), was used. Cells were washed twice in staining buffer, re-suspended in 30 μL FACS buffer containing Topro-3 (1:10,000 dilution) and analyzed on an iQue Screener (Intellicyt Corporation, USA). Binding curves were analyzed using non-linear regression (sigmoidal dose-response with variable slope) using GraphPad Prism V7.02 software (GraphPad Software, San Diego, CA, USA).

[2] = biological target: T2, human B7H4, full length, on cells; experiment: flow cytometry on HCC1954 tumor cells [HCC1954 right panel]
Procedure: as §1
Binding was analyzed by flow cytometry as described above.

binding result [1] | Binder | EC50 (read off the curve) [2]
binds | IgG1-B7H4-C5-FEAR (antibody, V domains shown, Full length IgG1 FEAR, kappa; variable domains from US20190085080A1) VH: QLQLQESGPGLVKPSETLSLTCTVSGGSIKSGSYYWGWIRQPPGKGLEWIGNIYYSGSTYYNPSLRSRVTISVDTSKNQFSLKLSSVTAADTAVYYCAREGSYPNQFDPWGQGTLVTVSS VL: EIVMTQSPATLSVSPGERATLSCRASQSVSSNLAWYQQKPGQAPRLLIYGASTRATGIPARFSGSGSGTEFTLTISSLQSEDFAVYYCQQYHSFPFTFGGGTKVEIKR | –
– | bsIgG1-huCD3-H101G-FEALxB7H4-C1-N52S-FEAR (bispecific antibody, also called bslgG1-huCD3-H101G-FEALxB7H4-C1-N52S-FEAR; BslgG1-huCD3-H101G-FEALxB7H4-C1-N52S-FEAR) heavy 1: not shown light 1: not shown heavy 2: QVQLQQWGAGLLKPSETLSLTCAVYGGSFSGYYWSWIRQPPGKGLEWIGEISHSGSTNYNPSLKSRVTISIDTSKNQFSLKLTSVTAADTAVFYCARGLFNWNFDSWGQGTLVTVSSASTKGPSVFPLAPSSKSTSGGTAALGCLVKDYFPEPVTVSWNSGALTSGVHTFPAVLQSSGLYSLSSVVTVPSSSLGTQTYICNVNHKPSNTKVDKRVEPKSCDKTHTCPPCPAPEFEGGPSVFLFPPKPKDTLMISRTPEVTCVVVAVSHEDPEVKFNWYVDGVEVHNAKTKPREEQYNSTYRVVSVLTVLHQDWLNGKEYKCKVSNKALPAPIEKTISKAKGQPREPQVYTLPPSREEMTKNQVSLTCLVKGFYPSDIAVEWESNGQPENNYKTTPPVLDSDGSFFLYSRLTVDKSRWQQGNVFSCSVMHEALHNHYTQKSLSLSPGK light 2: DIQMTQSPSSLSASVGDRVTITCRASQGIRNDLGWYQQKPGKAPKRLIYGASSLQSGVPSRFSGSGSGTEFTLTISSLQPEDFATYYCLQHNSYPRTFGQGTTVEIKRTVAAPSVFIFPPSDEQLKSGTASVVCLLNNFYPREAKVQWKVDNALQSGNSQESVTEQDSKDSTYSLSSTLTLSKADYEKHKVYACEVTHQGLSSPVTKSFNRGEC | ~1 µg/mL
